This data set deals with the molecule itself. Nature of the data set: HDX-MS.

B1: Salmonella typhimurium AhpC T77I mutant (enzyme)
chain: SLINTKIKPFKNQAFKNGEFIEVTEKDTEGRWSVFFFYPADFTFVCPTELGDVADHYEELQKLGVDVYSVSTDTHFIHKAWHSSSETIAKIKYAMIGDPTGALTRNFDNMREDEGLADRATFVVDPQGIIQAIEVTAEGIGRDASDLLRKIKAAQYVAAHPGEVCPAKWKEGEATLAPSLDLVGKI
modifications: oxidized form: intersubunit disulfide (Cys-46 to Cys-165); reduced form (TCEP): free thiols
Turning to B1, the binding result was “binds”.

B2: Salmonella typhimurium AhpC T77V mutant (enzyme)
chain: SLINTKIKPFKNQAFKNGEFIEVTEKDTEGRWSVFFFYPADFTFVCPTELGDVADHYEELQKLGVDVYSVSTDTHFVHKAWHSSSETIAKIKYAMIGDPTGALTRNFDNMREDEGLADRATFVVDPQGIIQAIEVTAEGIGRDASDLLRKIKAAQYVAAHPGEVCPAKWKEGEATLAPSLDLVGKI
modifications: oxidized form: intersubunit disulfide (Cys-46 to Cys-165); reduced form (TCEP): free thiols
For the protein B2, the binding result is listed as “binds”.
